What was measured:
human Tau fused with GFP = test: Flow cytometry of Tau-GFP over DsRed in DAOY cells transfected with Numb isoforms; assay type: cell-based; conditions: three days after transfection, compared to controls (Myc-Tag)
Text: FIGS. 6A-I: Isoform Numb-72 interacts with Tau and regulates Tau level. FIG. 6A. Schematic of 4 Numb isoforms, differing with the presence or the absence of an insertion (arrowhead) in PTB domain arrowhead, and the presence or the absence of an insertion in the proline-rich region (PRR). FIG. 6B. Coimmunoprecipitation of Tau and 4 isoforms of Numb in HEK293 cells. Each Numb isoform was transfected in HEK293T cells together with a flag-tagged version of Tau and immunoprecipitation was perform 24 hours later with a flag antibody and blotted for Numb. […] FIG. 6C. Detection of Tau::GFP level in presence of 4 isoforms of Numb by western blot in HEK293. All the Numb isoforms were transfected with a Tau::GFP fusion protein in HEK293T cells and the levels of Tau::GFP was analysed by western blot 48 hours after transfection. FIG. 6D. […] DsRed-IRES-Tau::EGFP expressing cells were used to assess the abundance of Tau by monitoring the Tau-GFP to DsRed fluorescence ratio. […] FIGS. 6F-J. Fluorescence-activated cell sorting (FACs) analysis of the 4 Numb isoforms affected 3 days after transfection on ratio DsRed versus DsRed and GFP-positives cells compared to the control (Myc-Tag). FIG. 6K Quantification represents fold change for 5 experiments, +/− SEM, **p≤0.001; n.s. non-significant Anova 1-way test. […]

[1] = tested on: primary RGC neuron cultures; test: Axonal blebs, neurite length and branching in transfected primary RGC neuron cultures of AD and tauopathy mice; assay type: cell-based, mouse; conditions: for number of axonal blebs: plasmid transfection, two weeks later, vs GFP
Method: FIGS. 10A-H: Numb72 reduces blebbing in AD mouse model RGCs. FIG. 10A. Primary retinal cultures were performed at P8 and cells were transfected using an Amaxa™ electroporator and analysed 14 days later. Cells GFP and NF165 positive were analysed in B6129J mouse line (Control) and triple transgenic mice (3×TGAD) expressing three mutations associated with familial Alzheimer's disease (APP Swedish, MAPT P301L, and PSEN1 M146V) after transfection of GFP or Numb-72 IRES::GFP. […] FIGS. 10B-D. Quantification of relative number of axonal blebs (FIG. 10B); axon (neurites) length (FIG. 10C) and branching number (FIG. 10D) in Control (B6129J) and 3×TGAD RGC axons was performed. Control numbers were normalized to 1. Error bars represent SEM, ** p≤0.001; n.s. non-significant; Anova 2 way for blebs and Student's t test for length and branching. FIG. 10E Primary retinal culture was performed at P8 and cells were transfected using an Amaxa™ electroporator and analysed 14 days later. Cells GFP and NF165 positive were analysed in C57b6 mouse line (Control) and P301S Tau mutant (TauP301S) (model of tauopathy) after transfection of GFP or Numb-72 IRES::GFP. […] FIGS. 10F-H. Quantification of relative number of axonal blebs (FIG. 10F); axon (neurites) length (FIG. 10G) and branching number (FIG. 7H) in Control (C57b6) (Control, FIGS. 10F-H) and TauP301S (FIGS. 10F-H) RGC axons was performed. Control numbers were normalized to 1. Error bars represent SEM, * p≤0.05; n.s. non-significant Anova 2 way for blebs and Student's t test for length and branching.
Retinal tissues were isolated from eyeballs of postnatal day 7 (P7) mice, cut in small pieces and incubated in PBS containing 5 mg/ml of papain, 0.24 mg/ml of L-cysteine, 0.5 mmol/l of EDTA, and 10 U/ml of DNase I for 2×3 min. The reaction was stopped by adding Lo-Ovo solution in PBS, and 10 U/ml of DNase I. The retinal cells were mechanically dissociated by gentle pipetting and collected as a suspension. Procedures were conducted at room temperature in a laminar flow hood. After centrifugation at 1000 rpm for 11 min, cells were resuspended in RGCs media and plate on glass coverslips at 50′000 cells/coverslips on a 24 wells plate and incubated at 37° C.; 8% CO2 for 2 weeks, half media was changed every 3 days. […]
To determine the neuroprotective effects of Numb-72, the inventors prepared primary RGC neuron cultures from control mice, triple transgenic mice (3×TGAD) expressing three mutations associated with familial Alzheimer's disease (APP Swedish, MAPT P301L, and PSEN1 M146V), or a P301S Tau mutant (model of tauopathy), and then expressed GFP or Numb-72 in these neurons by plasmid transfection. Two weeks later, the length of neurites, the number of branches, and the number of axonal blebs were counted.

[2] = control, 3xTGAD and P301S RGC neurons, two weeks after transfection

B1: Numb-72: 72 kDa Numb isoform with long PTB domain and long PRR; human isoform 1 (SEQ ID NO: 1); expressed by transfection (protein)
chain: MNKLRQSFRRKKDVYVPEASRPHQWQTDEEGVRTGKCSFPVKYLGHVEVDESRGMHICEDAVKRLKAERKFFKGFFGKTGKKAVKAVLWVSADGLRVVDEKTKDLIVDQTIEKVSFCAPDRNFDRAFSYICRDGTTRRWICHCFMAVKDTGERLSHAVGCAFAACLERKQKREKECGVTATFDASRTTFTREGSFRVTTATEQAEREEIMKQMQDAKKAETDKIVVGSSVAPGNTAPSPSSPTSPTSDATTSLEMNNPHAIPRRHAPIEQLARQGSFRGFPALSQKMSPFKRQLSLRINELPSTMQRKTDFPIKNAVPEVEGEAESISSLCSQITNAFSTPEDPFSSAPMTKPVTVVAPQSPTFQANGTDSAFHVLAKPAHTALAPVAMPVRETNPWAHAPDAANKEIAATCSGTEWGQSSGAASPGLFQAGHRRTPSEADRWLEEVSKSVRAQQPQASAAPLQPVLQPPPPTAISQPASPFQGNAFLTSQPVPVGVVPALQPAFVPAQSYPVANGMPYPAPNVPVVGITPSQMVANVFGTAGHPQAAHPHQSPSLVRQQTFPHYEASSATTSPFFKPPAQHLNGSAAFNGVDDGRLASADRHTEVPTGTCPVDPFEAQWAALENKSKQRTNPSPTNPFSSDLQKTFEIEL
modifications: homo sapiens
notes: 72 kDa Numb isoform with long PTB domain and long PRR; expressed by transfection
proportion of cells with low levels of Tau-GFP (Tau-GFP over DsRed) (human Tau fused with GFP): increased the proportion of cells with low levels of Tau-GFP | number of axonal blebs ([1]; 3xTGAD RGC neurons): reduced back to control levels | number of axonal blebs ([1]; P301S Tau mutant RGC neurons): reduced back to control levels | neurite length [1, 2]: not changed in any condition | number of branches [1, 2]: not changed in any condition

— US12186353B2, “Method of reducing neuronal microtubule binding protein Tau (Tau) levels” (ADAERATA, LIMITED PARTNERSHIP, priority 2018, dated 2025)
